This is an account of results in patent publication US20190142724A1 (CREDENTIS, published 2019).

This data set deals with the molecule itself. Briefly: rheology (elastic modulus G'), P11-4 at 15 mg/ml in different buffers, 37 C; homotypic self-assembly. As for the experimental part: P11-4 was prepared at 15 mg/ml with different buffer compositions (see below) measured at 0.1% strain, 37° C. and a frequency of 1 rad/second. Self-assembly of peptide monomers to polymers takes more than 5 min independent of the used ionic strength at neutral pH.

No end group written: not given here.

For the protein QQRFEWEFEQQ (not fully specified; printed as Gln-Gln-Arg-Phe-Glu-Trp-Glu-Phe-Glu-Gln-Gln) [self-assembling peptide P11-4], the binding result is reported as “binds”.
